One block for each molecule: values may come before it.
Experiments:
[1] = Long-term insulin stability at 4 °C, RP-HPLC; assay type: physicochemical
Method: To study relevant storage, the formulations were kept at a standard refrigeration temperature at 4 °C for 46 weeks.
The samples were stored at 4 °C for […], followed by regular sampling.

[2] = Differential scanning calorimetry, melting temperature of insulin; assay type: physicochemical; details: DSC; insulin 10 mg/mL in 10 mM HCl; pTrMA 5 mol equiv or trehalose 50 mg/mL
Text: In addition, differential scanning calorimetry was undertaken to study the melting temperature of the insulin. […] Thus, it is unlikely that the change in melting temperature is a significant factor in protein stabilization.

[3] = Accelerated heating assay of insulin (90 °C, 30 min), HPLC and PAGE; assay type: physicochemical; details: DPBS pH 7.4, insulin 1 mg/mL final, pTrMA 28.1 kDa 2 mol equiv, 0.22 μm filtered, RP-HPLC, n = 3
Method: The formulations were heated to 90 °C for 30 min. […] The heated samples were also investigated by native polyacrylate gel electrophoresis (PAGE) for changes to MW or isoelectric point for evidence of chemical changes or aggregate formation (Figure 8b).
For all *p < 0.05, **p < 0.01, and ***p < 0.001.
(§1) The samples were stored at 4 °C or heated to 90 °C for 30 min in ambient light. Aliquots of each insulin sample were used directly for SDS and native PAGE as well as ThT assay. […] ThT was prepared at 50 μM (0.0159 mg/mL) in 20 mM DPBS pH 7.4. Into a black 96-well plate, 50 μL of each sample was pipetted. To these was added 250 μL of ThT solution, and the plate was incubated at room temperature (21 °C) for 20 min. Fluorescence intensity was measured on a Tecan M1000 plate reader (λex = 450 nm, λem = 482 nm).

[4] = Thioflavin T (ThT) fibrillation assay; assay type: physicochemical; details: 90 °C, 30 min; ThT 50 μM, 20 min at 21 °C; λex 450 nm, λem 482 nm; n = 3
Method: as §1, with “In addition, differential scanning calorimetry was undertaken to study the melting temperature of the insulin. […] Thus, it is unlikely that the change in melting temperature is a significant factor in protein stabilization. […] The” for “The”

[5] = SEC-MALS oligomerization state of insulin; assay type: physicochemical; details: insulin 30 mg/mL, 0.1 M PBS pH 7.4; pTrMA 26.0 kDa 30 mg/mL; fresh or heated 90 °C 30 min
[6] = C57HL/6 mice, 72 h; cited from earlier work
Text: In the final time points of the extended μPET/μCT experiment, the signal in the liver still appeared to be going down, while the study co ...

[7] = μPET/μCT stability study of ^64Cu-labeled pTrMA-co-DOTA (fresh, plasma-incubated, free ^64CuCl2); assay type: in vivo, C57BL/6 mice; details: female mice, n = 4, i.v., fresh 200 μCi, plasma-incubated (37 °C, 24 h) 100 μCi, ^64CuCl2 100 μCi, mean ± SEM
Method: To determine if organ signal attenuation was occurring because ^64Cu was released from pTrMA-co-DOTA in vivo due to insufficiently strong DOTA chelation, the stability of the radiolabeled polymer as well as the biodistribution and excretion of free ^64Cu was investigated by further μPET/μCT imaging. Mice (female, n = 4) were i.v. injected with the fresh ^64Cu-labeled pTrMA-co-DOTA (200 μCi), ^64Cu-pTrMA-co-DOTA after incubating in plasma at 37 °C for 24 h (100 μCi), and free ^64CuCl2 (100 μCi). […] If ^64Cu was readily leached from the DOTA group when incubated in plasma, the shifting biodistribution in the organs with time would have been the same as with the mice exposed to free ^64CuCl2. […]
Figure 6 Time course biodistribution and excretion of fresh ^64Cu-labeled pTrMA-co-DOTA (blue), plasma-incubated ^64Cu-labeled pTrMA-co-DOTA (red), and free ^64CuCl2 (green) from the organs (a) brain, (b) heart, (c) liver, (d) left kidney, (e) right kidney, (f) bladder, (g) muscle, (h) left lung, (i) right lung, (j) spleen, and (k) intestine of female (n = 4) mice. […] Data were quantified from μPET images.
^64Cu-radiolabeled pTrMA-co-DOTA was incubated in plasma collected from a female C57BL/6 mouse at 37 °C for 24 h. […] Co-registered μPET/μCT images were analyzed, and MIPs were generated using AMIDE software.

[8] = system: IgG and IgM antibodies specific to OVA or pTrMA; assay: Antibody immunogenicity study, IgG and IgM immune ELISA of serum; assay type: in vivo; details: female CD-1 mice, n = 5–6; i.p. at weeks 0 and 2; OVA 2 mg/kg, pTrMA 10 wt %; serum weeks 1-3; ELISA vs naïve serum
Method: To study the adaptive immune response in the form of antibody production, mice were challenged at weeks 0 and 2 with the model immunogenic protein ovalbumin (OVA, 2 mg/kg) as a positive control, pTrMA (10 wt % or 100 mg/mL), or both OVA + pTrMA (2 mg/kg OVA, 10 wt % pTrMA) via intraperitoneal (i.p.) injection. Serum was collected each week, and the immunoglobulin IgG and IgM antibodies specific to OVA or pTrMA were measured by ELISA. For ELISA, OVA or bovine serum albumin (BSA) conjugated with pTrMA (Figure S1) was adsorbed for 16–18 h on microplate wells to capture any antibodies in the serum. Serum from challenged mice and naïve mice as a negative control was measured for antibodies against the challenge antigen, OVA, or the BSA–pTrMA conjugate. Serum from the mice treated with OVA and pTrMA was tested against both OVA and the BSA–pTrMA conjugate. Testing against both antigens measured if the polymer increases the immunogenicity of OVA and, conversely, if the presence of an immunogenic protein, OVA, elicited an immunogenic response to the polymer (Figure S2).
Figure 2 Antibody levels in mice specific to OVA or pTrMA (BSA–pTrMA conjugate) antigens over 3 weeks after i.p. injection of OVA (2 mg/kg), OVA + pTrMA (2 mg/kg, 10 wt %), or pTrMA (10 wt %) at weeks 0 and 2 (n = 5–6). […]

Molecule: insulin: Recombinant human insulin purchased from Sigma-Aldrich
intact insulin, % of the original level, after 20 weeks ([1]; DPBS pH 7.4, insulin 1 mg/mL final, pTrMA 10.1 kDa 2 mol equiv, 0.22 μm filtered, RP-HPLC, n = 3, mean ± SEM): 67.4 ± 7.0% | appearance of solution (aggregation) during weeks 20-46 ([1]; DPBS pH 7.4, visual): visually cloudy | melting temperature of insulin (alone or with the named additive) [2]: 86.6 °C | degradation (deamidation at AsnB3) after heating, HPLC [3]: very little intact insulin remaining | ThT fluorescence signal [4]: significantly higher (p < 0.01) fluorescence signal than fresh insulin | oligomerization state by SEC-MALS [5]: no hexameric insulin was present

B1: OVA: model immunogenic protein ovalbumin, positive control (protein, UniProt P01012 2-386, looked up)
Ovalbumin: GSIGAASMEFCFDVFKELKVHHANENIFYCPIAIMSALAMVYLGAKDSTRTQINKVVRFDKLPGFGDSIEAQCGTSVNVHSSLRDILNQITKPNDVYSFSLASRLYAEERYPILPEYLQCVKELYRGGLEPINFQTAADQARELINSWVESQTNGIIRNVLQPSSVDSQTAMVLVNAIVFKGLWEKAFKDEDTQAMPFRVTEQESKPVQMMYQIGLFRVASMASEKMKILELPFASGTMSMLVLLPDEVSGLEQLESIINFEKLTEWTSSNVMEERKIKVYLPRMKMEEKYNLTSVLMAMGITDVFSSSANLSGISSAESLKISQAVHAAHAEINEAGREVVGSAEAGVDAASVSEEFRADHPFLFCIKHIATNAVLFFGRCVSP
OVA-specific IgG response [8]: increased in both weeks 2 and 3 | OVA-specific IgM response [8]: only elevated in the first week

More lines, main results first:

total signal remaining at the 24 h time point [7]: 56.3 ± 19.7%
Molecule: [64Cu+2].[Cl-].[Cl-] [^64CuCl2]
accumulation in the kidneys [6]: 10 % ID/cc | accumulation in the liver [6]: 13 % ID/cc

melting temperature of insulin (alone or with the named additive) [2]: 88.8 °C
Molecule: OC[C@H]1O[C@H](O[C@H]2O[C@H](CO)[C@@H](O)[C@H](O)[C@H]2O)[C@H](O)[C@@H](O)[C@@H]1O [trehalose]

Reference: article PMC9412841 (ACS Applied Materials & Interfaces, 2022)
